These results are taken from article PMC7952403 (Nature Communications, 2021).

As a reminder, the Kd is the concentration at which binding is half-saturated.

In the test the target is SARS-CoV-2 RBD-SD1, HEK cell produced (SPR) (Severe acute respiratory syndrome …, UniProt P0DTC2). In words: SPR. As to conditions: both partners purified.

B1: STE73-2E9 IgG (antibody, V domains shown)
VH: QVQLVQSGAEVKKPGASVKVSCKASGYTFTSYGISWVRQAPGQGLEWMGWISAYNGNTNYAQKLQGRVTMTTDTSTSTAYMELRSLRSDDTAVYYCARGKFDYWGQGTLVTVSS
VL: QSVLTQPPSVSEAPSQRVTISCSGSSSNIGNNAVNWYQQLPGKAPKLLIYYDDVLPSGVSDRFSGSKSGTSASLAISGLQSGDEADYYCAAWDDSLSGVVFGGGTKLTVL
notes: source: Expi293F, transfected, purified (Protein A); copies: 2 + 2
Regarding B1, the dissociation constant (Kd) was determined as 2 nM. This counts as single-digit nanomolar.
